# Reference: the DeepSol protein solubility set
# Experiment: soluble on expression in E. coli; label from the status in PepcDB or PDB records
row,Sequence,soluble on expression in E. coli
1,MSSNENSDDVPEQRQIVRRSRVYNPRDPSSPEPPYDPYPPGIHAQAGCATRPISAHIVPQALIEPIRLHREEDELAGTSSCRPVPQCDFNLESDRWEEDQLENPQIKSQWKGSETRPVANFARRQQRVLRTDWKHVDVQITVWEELKKVLEAAEIVDVTLNMMKTLNPDTKAMWLLKFHTTSLTEYLEDFESRAEYFNEMLLELDGIHPDLFTECSNYISQLKDVTHSRELQAVQVHLPKAVKNSDAQKVRFYLQLAGEAKKDIAVVLNNNKVKTLLIDNGFTL,not soluble
2,MQDEVVLLDFWPSPFGMRVRIALAEKGIKYEYKEEDLRNKSPLLLQMNPVHKKIPVLIHNGKPICESLIAVQYIEEVWNDRNPLLPSDPYQRAQTRFWADYVDKKIYDLGRKIWTSKGEEKEAAKKEFIEALKLLEEQLGDKTYFGGDNLGFVDIALVPFYTWFKAYETFGTLNIESECPKFIAWAKRCLQKESVAKSLPDQQKVYEFIMDLRKKLGIE,soluble
3,MITVVIASRLREDRLDYLTAMHASLTRQSVPWEAVIALDGASPDRLPRQLAQDPRVDTLVLPRPVGAACARNLALTQVRTRYVNWADDDDEFTDDAMSVRLETLESTGVGWCAGWSEDQFRDGSTRLWRCPTPPGRHEAGDVWTFWKSPADTIPIGPTTILARTDLVRAAPMGGLVQGEDYCAALGVTALAPGILLPLPVYRYRKWGGQMTAQDGYDQLETAAREHAWAYGRSLRAVLRGGEDLVHVLEHHHHHH,not soluble
4,MGSDKIHHHHHHMSSRAFSTVAVTDAFFTLVAPVAKNSARIVIIVNSVSTGKNHPQMVALQQTVQQLGYAHVQLLDVLTDDLAALNTATVIILNGGYEFLLLKNLRETHVLERLRTLALAGKPIYGISAGAILLGPDLDLYVYLYPEDNTEQLASTTAINATTIRIYPHYDVHCEVKPQLPQLITDWEHKTGVTVKRLTNNQGLLVHGSQIQMIDSDS,not soluble
5,MSSKHEILNALKLSALTNHPMPSIDVAPRVEDLVGQFETNLKTVAGTLHREGGLAALQAKVDELIAQGLQVISLVEGVTANRDVPPTAHELRDIDYAVIPGDVGVAENGAIWVNNKNLGHRVTPFICENLILALPIHKIVPNMHQAAKEVTLDAGEFGVFIAGPSKTADIEQALVVGAHGACSLNVYLV,soluble
6,MTSSDLPVMLFAAGFGTRMGDLTRTRPKPLIEVAGRPLVDHTLDLARAVSPPRIVANLHYLAPLLAAHLAPQGVLLSHEQPDILDTGGGLRQALPLLAAETVFTANSDAIWSGPNPFALLAEAWEPARMDALLMCVPVGQAIGHAGHGDFSRDAQGRIERGPGLIYGGVQIVKTGGLGDFDMPAFSLNLLWNRIGAAGRLFALEYPGRWCDVGHPGGIALAEEMLRDVLEHHHHHH,soluble
7,MPLTFAHSFADAVPSLSVPWRAEQWPDPRIIVFNHELGQELGIDEASLLSNITQQGHAQAYSGHQFGQFNPLLGDGRALVLGDCAQTNAPHGQFEISLKGSGPTPFARRGDGRATLGPMLREYLISEALHGLGIPTTRSLAVITTGTDVQRERLLPGAVVVRVAQNHLRVGSVQCAAMRDDDSLAALVRYALSSHEDGVSDAEAAGLLLRRVSTSQAKLVAQWMRFGFVHGVMNTDNVTLSGQTIDFGPCAFIDSFHPQAVFSSIDSHGRYSFGRQPSIMGWNIARLAEALLPLMSIDEARNIVHEFPDMYRRSWLDEMADAVGISPDDDHAAGVLDDLVALLDVHRPDYAQFMRSLSDGTTVSLFPWAQQWEAEVSSLRVAAPRNPVYVPRNYLVEDALEHAMNADMSVFSLLVEAGKNPYLREKRFEKLENPAPETWQDYVTYCGTLEHHHHHH,soluble
8,MCESKIDRNRIWIVGTNATYPPFEYVDAQGEVVGFDIDLAKAISEKLGKQLEVREFAFDALILNLKKHRIDAILAGMSITPSRQKEIALLPYYGDEVQELMVVSKRSLETPVLPLTQHSSVAVQTGTFQEHYLLSQPGICVRSFDSTLEVIMEVRYGKSPVAVLEPSVGRVVLKDFPNLVATRLELPPECWVLGCGLGVAKDRPEEIQTIQQAITDLKSEGVIQSLTKKWQLSEVAYELEHHHHHH,soluble
9,MGSDKIHHHHHHMKLGYCSITWGGVVGHPGGVTSVKDLFYLTHGSMKDAIHDIASVGYEGVEMFDGNLAEYADKPEVLKELLNSSGVSLTSVYTGANFIYADILPDELHRIHRSAELAANFGADRLVVGGGARRAAGTTDEDYHRLGRALDSVTDIAESFGLSASYHPHLTTIVESPDELDKLMPLTRIGFCPDTAHLAAGGADPAAVIRKYPDRIRHVHLKDFRQDPFTFLPLGQGELDFPDILAAIRESGYDSWLMVELDNYDGDPREAAELSMKYLEKLL,not soluble
10,MKQPFERILREICFMVKVEGRKVLRDFGITPAQFDILQKIYFEGPKRPGELSVLLGVAKSTVTGLVKRLEADGYLTRTPDPADRRAYFLVITRKGEEVIEKVIERRENFIEKITSDLGKEKSSKILDYLKELKGVMERNFSKQ,soluble
11,MSDTADSLSARGIPKSELIEDVESWLTKEKLSIEEAEVVLREKYGKYKYVESSMLAQKVRMSEKIPEFENSLSIIDTLIAKRAADESFETTFLLSDDVYTKATVQKPEKVSIWLGANVMVEYDLENARKLLDKNRGSVQKVVDELTNELSYIKDQITTTEVNMSHIVNFGVNKRRAALAVNNGAK,not soluble
12,MTRSALKPFKNKRVMVTGRIQRVLFKNYLDRHSTFKPNVRILLKDVFVSGVSIDHLWLYETNKYYALAMELIHQRVKFSANVVPYYKINRNNNLFVQDYGIKRKGRLITEEAYNQNNQYQDKIYEKLPDIDFRLEDFYSKENLEHHHHHH,not soluble
13,MRVEKAWFLADGAEAPEGLPEGGFREVALPHQWSLEGVEAEVGWYRLALPEAGPRRFLLSFGDYYQEAWLDGTYLGRHEGYFFPWVLELPKGKELFLRVSAPKEPLGVWPRFKRQIKGVFGQHDCRPGGTTARGQERGTGGLWGGVEVWAREEVALLGLAHRLFPRAGGWRLWVRLLVDAQRPFRERARLFLVPANFPGEALEREAVLEGEAGRAWREVVWDLPEMPLWEVWERGFPHLFRLEADLLGARLGVPLGFRTVEVDGEGWLLLNGKRLFLRGTNAIPTQWLAAYSEAMAQKDVALLKEANLNAVRVHAHVTHPAFYAACDREGVLVWQDFPLQWGYAPDEAFAQEALRQARAMVEVLGAHPSVYLWCAQNEPTHNRHALGPLLAAALRAADPTRPVKEASDFREHPYPGWYRGHYRDFLALPGAPLPSEFGAQALPRAELLRRVLGEAAWPPRWEVWAYHNFQPHETFRVARVEMGESLEEFVERSQDYQARLIEFAVHAYRRAKGKVVGYFQFMFVEPWEGITWAVLDVERVPKKGFFALKEASSPVLLSLVPYRERVEVGGPPCRRPGS,soluble
14,MSLNENLQELIPTKLAAAIANPLFPAVDSQLRSGRHIGQEYLDNFAFLADFQNELDMFYRRYNVELIRAPEGFFYLRPKATTLIARSVLSELEMLVGKVLCYLYLSPERLAQQGIFSVQEVYDELLNLADESKLLKAVNQRSSGSDLDKQKLAEKVRAAVNRLRRLGMIHTVGEQNSGKFTISESVFRFGAEVRSGDDPREAQLRLIRDGEAATPDSLSQEKSAVKNDEEIEDELDEGLGEEEEGHHHHHH,soluble
15,MSLGSMGFIESEVAVVYGRIVEGFRAPYKEDLYFKTVIVPGFSDGHMHTQVVDAGLEPSRVWSNSYEWLETRRLRVDEAAVRSDLDLSSRLAAAAFSRSLLEGVTLVAATGRLSANVRGWLSLTSRPRAIFLPTVMDRAGWPSIREVEVEIERLEGLLRDGLAKIGVFVHSLGTAKPESVRRALQTAARRRSIMGMHLSEGLPEAGRLVDVLGRGPYPARIVAVHCMEVEDLPTGVRCVSCPASNQILYRRTRPTLEGVDGFGSDWPLLIGTIARHLPLINKLYPGRLQEILYKATIGGYRAYLALHDGDFVAYDASLEDVLAGRALPVWVSVAGKPAVVEGRLSGSGYGYGEVLSIIRRLIKEALEKHGDGSLPYIPDVESMYEASLALEGGPRSEGHHHHHH,not soluble
16,MGSDKIHHHHHHMNQQPEQITALYCRLSRDDELQGDSNSIVNQKSILSKYAEEHRLLNTRFFIDDGVSGTTFDRPGLNEMLALIDEEKVSTVIVKDMSRLGRDYLKVGLLTEIQLPEKGVRFIAINDGVDSNQGVSEFIAFRNVINEWYAKDTSKKIKAVFTAKGQSGKPLSTFPPYGYIKDPEDKNRWIVDEAAAEVVREIFRLCMEGNGPTKIARILSERRVLIPSAYAKSNGRSAPADVPADRCKWCDSTVAHILERKEYLGHTVNFKTYKESFRNKKQRKNPKENQMVFENTHQPIIEQDVWDTVQQLR,not soluble
17,MLHILINFINFGKMFTLGNIMKFKKIYIELSDICGLKCDFCPSQKGIRGVMSEEKFQNLAYEISNKAELFTFHLLGDPLLLPNLENYLKIAKDEAMKLEITTSGFYLNSKNQALLLGYENIHQINISLMSFLSQSKISLEQYFKPILELCKKHLEQKSLSFINLRLWNLDANFKAPKSNLKIYEFLAKEFEAKIDANLSKNRLQRHILLHQNKLFKWPNLKDEPLYKKGKCHALKEQIGILSDGSLVPCCLDTKADINLGNVFENNFDKLFRSPRIKMMKKAFEEDKRIEKLCQTCEFFKARLGD,not soluble
18,MEDDPVWRFDDRDVILYNIALGATTKQLKYVYENDSDFQVIPTFGHLITFNSGKSQNSFAKLLRNFNPMLLLHGEHYLKVHSWPPPTEGEIKTTFEPIATTPKGTNVVIVHGSKSVDNKSGELIYSNEATYFIRNCQADNKVYADRPAFATNQFLAPKRAPDYQVDVPVSEDLAALYRLSGDRNPLHIDPNFAKGAKFPKPILHGMCTYGLSAKALIDKFGMFNEIKARFTGIVFPGETLRVLAWKESDDTIVFQTHVVDRGTIAINNAAIKLVGDKAKI,soluble
19,MEILNQFSQFSPNMEAQGASSIPQPSQDAHEKARQQAENQETAKNGMISQILDQAAMQRLSNLAVAKPEKAQMVEAALINMARRGQLSGKMTDDGLKALMERVSAQTQKATSVKFDRRRNELDSDEELDL,not soluble
20,LSDVLVPTAGGLSSDLSAAVAKALEETFGVAVSLLHVVDPGEEESGRQFMYEWAAEHGLSDAELRIETGDIEATIERLGRDYSLVIVGATERGLLSRIVRGSLVFDVIETLDTPVLLAERPSSRSLRERLFGRE,not soluble
21,MSLDFRSADFLRTHISDTMAFYHPRCIDSAGGFFHYFRDDGSIYNATHRHLVSSTRFVFNYAMAYLQFGTAEYLDAVHHGLSYVRDVHRNPATGGYAWTLCDDRVEDDTNHCYGLAFVMLAYSCGLKVGIKQAREWMDETWCLLERHFWDAEYGLYKDEADAQWNFTRYRGQNANMHMCEAMLAAYEASGEQRYLERALVLADRITRRQAAKADGLVWEHYDMRWEVDWDYNRDNPKHLFRPWGFQPGHQTEWAKLLLILDRYIEVEWLVPVARSLFDVAVARSWDAVRGGLCYGFAPDGTICDDDKYFWVQAESLAAAALLATRSGDERYWQWYDRLWAYAWQHMVDHRYGAWYRLLDGDNRKYNDEKSPAGKTDYHTMGACHEVLNVVWTKSEGHHHHHH,soluble
22,MSKLPEIGTKISLTDKAYEIIKDAIMTNIFKPGELLIEEKLAEQLAISRTPLRAALRKLAYDHLVEINSSRNVIVANIGQKDVEEITVVREVLEPLAVKELENNIGEDELKKLEEILCRQKKAVLEDNYEELIKMEYEFHVAIGELTHNKWLHGMLKDINTIVQRYLILSGSLNKYKEVAIKEHEVIISEIRQGNYDKAVESMKCHISNVSSRMLK,not soluble
